Test results from patent US20110162109A1 (BASF PLANT SCIENCE, published 2011).
Values belong to the molecule of their own block, whether it stands above or below them.

B4: HUB1 (Histone Monoubiquitination 1), At2g44950, Arabidopsis thaliana (enzyme)
chain: MASTGEPDRKRRHFSSISPSEAAAAVKKQPFFWPSSEDKLDTAVLQFQNLKLSQKLEAQQVECSILEDKLSQIKEKQLPYNSSLKTVHKSWEKLTASVESCSVRVSDSSSGAHRFVNKEDGSSPAVKNDFINRLLETGATESSSSNICSNQMEENGVNTSSQMTQTLYNLVAATEDLRCLKDELYPTVLRTNLGKDLCGQLALSELESEIKSFRGDLDDVLVKFKSLSRELQSHRDADAKVRVDLKRIRGELEDEVVELQQCNGDLSALRAERDATAGAFFPVLSLGNKLATSDRERDKQRDLQDMETVLKELTVLASGRLQQLKNLHEERTKMLGKMSNLQNKSKSVRCISSSQACLSLKDQLEKSKEAVFQYMALLEKLQVEKDSIVWKEREINIKNELGDVSRKTSAVTDSRMASLDSEIQKQLDEKMRIKTRLGNISRERGRKEIFADMKALISSFPEEMSSMRSQLNNYKETAGGIHSLRADVQSLSGVLCRKTKEYEALQLRSADYASQLGDLNATVCDLKNSHEELKLFLDMYKRESTDARDIAEAKEQEYRAWAHVQSLKSSLDEQNLELRVKAANEAEAVSQQMLAAAEAEIADLRQKMDDCKRDVAKHSDILKSKHEEHGTYLSEIQTIGSAYEDIVPQNQRLLLQVTERDDYNIKLFLEGITSRQMQDTLLIDKYIMDKDIQQGSAYASFLSKKSSRIEDQLRFCTDQFQKLAEDKYQKSVSLENLQKKRADIGNGLEQARSRLEESHSKVEQSRLDYGALELELEIERFNRRRIEEEMEIAKKKVSRLRSLIEGSSAIQKLRQELSEFKEILKCKACNDRPKEVVITKCYHLFCNPCVQKLTGTRQKKCPTCSASFGPNDIKPIYI
notes: Full length HUB1; In the TAP experiments N-terminally fused to the TAP tag or the GS-TAP tag; in yeast two-hybrid fused to AD (pDEST22) or BD (pDEST32); all these constructs are written under this one entry; also called HUB1fl; full length HUB1

Experiments:
[1] = biological target: UBC2, At2g02760 (Arabidopsis thaliana) (UniProt P42745); assay: GS-TAP purification + MALDI-TOF-TOF MS, bait UBC2 (third block); expectance is the MS identification score
[2] = biological target: T1, HUB2, At1g55250, Arabidopsis thaliana (Arabidopsis thaliana, UniProt Q9C895 1-900); assay: GS-TAP purification + MALDI-TOF-TOF MS, bait HUB2 (a); expectance is the MS identification score
T1 construct: As prey the endogenous protein of Arabidopsis cell culture; as bait N-terminal GS-TAP fusion; in yeast two-hybrid an AD fusion; also called AAG51572.1
T1 sequence: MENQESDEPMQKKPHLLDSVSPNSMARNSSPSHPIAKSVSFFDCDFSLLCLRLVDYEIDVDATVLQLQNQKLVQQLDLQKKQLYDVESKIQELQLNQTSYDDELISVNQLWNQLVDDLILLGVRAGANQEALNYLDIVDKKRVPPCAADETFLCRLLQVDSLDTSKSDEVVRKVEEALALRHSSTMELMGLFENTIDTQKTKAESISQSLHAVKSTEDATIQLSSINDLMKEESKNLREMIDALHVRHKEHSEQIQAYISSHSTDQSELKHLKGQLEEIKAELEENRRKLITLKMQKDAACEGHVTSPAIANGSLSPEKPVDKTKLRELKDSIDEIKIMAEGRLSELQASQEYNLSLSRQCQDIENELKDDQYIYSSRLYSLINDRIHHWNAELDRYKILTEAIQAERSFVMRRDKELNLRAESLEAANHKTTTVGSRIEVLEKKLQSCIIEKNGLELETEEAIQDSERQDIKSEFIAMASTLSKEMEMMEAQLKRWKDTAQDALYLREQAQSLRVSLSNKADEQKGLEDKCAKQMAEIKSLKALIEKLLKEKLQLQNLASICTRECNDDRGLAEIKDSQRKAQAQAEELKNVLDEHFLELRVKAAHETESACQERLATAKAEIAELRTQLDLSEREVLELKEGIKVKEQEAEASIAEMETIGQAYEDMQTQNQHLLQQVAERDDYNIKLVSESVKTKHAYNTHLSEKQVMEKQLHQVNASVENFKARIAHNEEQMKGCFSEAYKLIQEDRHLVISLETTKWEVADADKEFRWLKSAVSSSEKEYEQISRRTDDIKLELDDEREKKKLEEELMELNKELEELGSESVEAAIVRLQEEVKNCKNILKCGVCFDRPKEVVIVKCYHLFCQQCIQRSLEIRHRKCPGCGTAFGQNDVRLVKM

[3] = biological target: HUB1 (Histone Monoubiquitination 1), At2g44950, Arabidopsis thaliana (Arabidopsis thaliana) (UniProt Q8RXD6); assay: GS-TAP purification + MALDI-TOF-TOF MS, bait HUB1 (b′); expectance is the MS identification score
[4] = biological target: HUB1 (Histone Monoubiquitination 1), At2g44950, Arabidopsis thaliana (Arabidopsis thaliana) (UniProt Q8RXD6); assay: GS-TAP purification + MALDI-TOF-TOF MS, bait HUB1 (a′); expectance is the MS identification score
[5] = biological target: HUB1 (Histone Monoubiquitination 1), At2g44950, Arabidopsis thaliana (Arabidopsis thaliana) (UniProt Q8RXD6); assay: GS-TAP purification + MALDI-TOF-TOF MS, bait HUB1 (b); expectance is the MS identification score
[6] = biological target: T1, HUB2, At1g55250, Arabidopsis thaliana; assay: GS-TAP purification + MALDI-TOF-TOF MS, bait HUB2 (b); expectance is the MS identification score
[7] = biological target: Spen like protein, At1g27750 (Arabidopsis thaliana); assay: GS-TAP purification + MALDI-TOF-TOF MS, bait SL (b); expectance is the MS identification score
[8] = biological target: Spen like protein, At1g27750 (Arabidopsis thaliana); assay: GS-TAP purification + MALDI-TOF-TOF MS, bait SL (a); expectance is the MS identification score
[9] = biological target: SEUSS, At1g43850 (Arabidopsis thaliana) (UniProt Q8W234); assay: GS-TAP purification + MALDI-TOF-TOF MS, bait SEUSS (b); expectance is the MS identification score
Chain of SEUSS, At1g43850 (Arabidopsis thaliana) (Q8W234 whole entry): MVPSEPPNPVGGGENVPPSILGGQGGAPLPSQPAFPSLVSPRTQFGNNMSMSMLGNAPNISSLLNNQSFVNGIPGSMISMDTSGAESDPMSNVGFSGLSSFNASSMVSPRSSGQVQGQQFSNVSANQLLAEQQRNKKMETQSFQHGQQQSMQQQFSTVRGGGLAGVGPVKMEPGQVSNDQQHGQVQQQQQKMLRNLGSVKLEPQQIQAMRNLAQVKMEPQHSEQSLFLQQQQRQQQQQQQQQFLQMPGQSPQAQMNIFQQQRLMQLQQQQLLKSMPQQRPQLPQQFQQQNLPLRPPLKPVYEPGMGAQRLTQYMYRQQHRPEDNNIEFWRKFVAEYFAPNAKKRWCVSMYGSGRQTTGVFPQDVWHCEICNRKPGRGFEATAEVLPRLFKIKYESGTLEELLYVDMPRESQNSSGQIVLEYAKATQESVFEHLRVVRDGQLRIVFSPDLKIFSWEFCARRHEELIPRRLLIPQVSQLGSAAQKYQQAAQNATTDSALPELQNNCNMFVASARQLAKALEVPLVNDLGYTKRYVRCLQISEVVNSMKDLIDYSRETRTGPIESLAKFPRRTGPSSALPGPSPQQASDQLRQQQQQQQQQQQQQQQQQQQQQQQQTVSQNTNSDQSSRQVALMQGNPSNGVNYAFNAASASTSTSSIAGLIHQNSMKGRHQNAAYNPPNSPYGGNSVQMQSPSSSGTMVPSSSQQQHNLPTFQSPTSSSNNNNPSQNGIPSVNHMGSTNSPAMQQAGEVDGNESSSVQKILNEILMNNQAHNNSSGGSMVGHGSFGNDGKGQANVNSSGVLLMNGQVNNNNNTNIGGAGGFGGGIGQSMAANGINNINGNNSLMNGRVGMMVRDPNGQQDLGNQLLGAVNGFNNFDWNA

[10] = biological target: SEUSS, At1g43850 (Arabidopsis thaliana) (UniProt Q8W234); assay: GS-TAP purification + MALDI-TOF-TOF MS, bait SEUSS (a); expectance is the MS identification score
[11] = biological target: T1, HUB2, At1g55250, Arabidopsis thaliana; assay: yeast two-hybrid
[12] = biological target: B4; assay: yeast two-hybrid
[13] = biological target: the molecule itself; assay: TAP with N-terminally TAP-tagged HUB1 from Arabidopsis cell culture, mass spectrometry; column Confirmed
Method: Because the RING proteins have their functionally important domain at the C-terminus, an N-terminal fusion was prepared instead of the traditional C-terminal fusion by cloning both full length and the point mutant form of HUB1 (HUB1pm, HUB1fl). The Arabidopsis cell cultures were transformed with the two constructs and cultivated on 10 litre scale, harvested and purified by TAP (Van Leene et al., Mol. Cell. Proteomics 6, 1226-38, 2007). The protein extracts were separated on 1-D SDS-PAGE gels and isolated from gel for protein identification by mass spectrometry (Laukens et al., Proteomics. 4, 720-7, 2004, Van Leene et al., 2007). Two cut offs were used resulting in “confirmed” and “to be confirmed” candidate interactor lists (Table I).
In the data set of confirmed interactors TAP HUB1 and HUB2 were present, […] the dimer formation between the homologues. In addition, the acetyltransferase GCN5, RNA binding proteins and a KH domain protein were identified as HUB1 interacting proteins. Most of these proteins are known to be localized in nucleus or nucleoli. GFP constructs of HUB1 have also been localized to nucleus (Liu et al., 2007). When HUB1pm was used for TAP purification no HUB2 could be identified as an interacting protein.

Expectance [1]: 0.00082
Molecule: AtUBA1, AT2G30110 (from UniProt P93028 1-1080) (enzyme)

Expectance [1]: 0.00026
Molecule: AtUBA2, AT5G06460 (from UniProt P92974 1-1077) (enzyme)

Expectance [2]: 1.3e-08
Expectance [3]: 3.3e-09
Expectance [4]: 2.1e-09
Expectance [5]: 1.6e-08
Expectance [6]: 1.6e-09
Expectance [7]: 2.6e-12
Expectance [8]: 0.00054
Molecule: KH domain protein, At1g51580

Expectance [9]: 2.1e-82
Expectance [10]: 3.3e-99
Molecule: LUH, At2G32700 (from UniProt O48847 1-787)

Expectance [2]: 0.00097
Expectance [3]: 0.024
Expectance [4]: 6.5e-16
Expectance [6]: 1e-24
Molecule: Spen like protein, At1g27750

binding result [11]: no binding
binding result [12]: no binding
B1: UBC3 (E2 conjugating enzyme, Arabidopsis thaliana) (enzyme, UniProt P42746 1-150, looked up)
chain: MTTPAKKRLMWDFKRLQKDPPVGISGAPQDNNIMHWNALIFGPEDTPWDGGTFKLTLHFTEDYPNKPPIVRFVSRMFHPNIYADGSICLDILQNQWSPIYDVAAVLTSIQSLLCDPNPDSPANAEAARLFSENKREYNRKVIEIVEQSYV
notes: Yeast two-hybrid fusion

binding result [11]: no binding
binding result [12]: no binding
B2: UBC1 (E2 conjugating enzyme, Arabidopsis thaliana) (enzyme, UniProt P25865 1-152, looked up)
chain: MSTPARKRLMRDFKRLQQDPPAGISGAPQDNNIMLWNAVIFGPDDTPWDGGTFKLSLQFSEDYPNKPPTVRFVSRMFHPNIYADGSICLDILQNQWSPIYDVAAILTSIQSLLCDPNPNSPANSEAARMYSESKREYNRRVRDVVEQSWTAD
notes: Yeast two-hybrid fusion

binding result [11]: no binding
binding result [12]: no binding
B3: UBC2, At2g02760 (enzyme, Arabidopsis thaliana, UniProt P42745 1-152, looked up)
chain: MSTPARKRLMRDFKRLQQDPPAGISGAPQDNNIMLWNAVIFGPDDTPWDGGTFKLSLQFSEDYPNKPPTVRFVSRMFHPNIYADGSICLDILQNQWSPIYDVAAILTSIQSLLCDPNPNSPANSEAARMFSESKREYNRRVREVVEQSWTAD
notes: As bait N-terminal GS-TAP fusion; fusion protein in yeast two-hybrid; also called E2 conjugating enzyme UBC2

Molecule: B4
binding result [13]: binds
monoubiquitination of histone H2B in the in vitro ubiquitination assay (protein gel blot) (histone H2B): shift of H2B by 10 kDa
